The source of these data is the supplement of paper PMC9112550, “Optimization of the antimicrobial peptide Bac7 by deep mutational scanning” (BMC Biology, 2022).

This series deals with Escherichia coli TOP10. In words: shrunken log2 fold change of peptide-encoding DNA abundance (4.5 h post-induction vs induction); higher = less antimicrobial activity (less host growth inhibition). To be noted: time post-induction: 4.5 h; library: site-saturation at positions 5, 18, 19, 20.
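Further: peptides expressed intracellularly from a pBAD plasmid library in pooled LB shake-flask culture, induced with 0.3% L-arabinose, DNA abundance read by NGS, three biological replicates, DESeq2 with apeglm shrinkage.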

In the case of RRIRMRPPRLPRPRPRPTASPRP, the “shrunken log2 fold change” value came to 1.

As to RRIRNRPPRLPRPRPRPMCKPRP, the “shrunken log2 fold change” value is -0.175.

With RRIRLRPPRLPRPRPRPQFKPRP, the “shrunken log2 fold change” value is -0.501.

For RRIRTRPPRLPRPRPRPIKFPRP, the “shrunken log2 fold change” value is -0.0306.

For RRIRVRPPRLPRPRPRPHLGPRP, the “shrunken log2 fold change” value was -0.132.

With RRIRSRPPRLPRPRPRPFQNPRP, the “shrunken log2 fold change” value was -0.3.

Consider RRIRGRPPRLPRPRPRPFWYPRP, for which the “shrunken log2 fold change” value was -0.0145.

Turning to RRIRSRPPRLPRPRPRPDYKPRP, the “shrunken log2 fold change” value was -0.722.

Turning to RRIRRRPPRLPRPRPRPINYPRP, the “shrunken log2 fold change” value was -0.196.

On to RRIRLRPPRLPRPRPRPSTFPRP, for which the “shrunken log2 fold change” value was -0.33.

Consider RRIRERPPRLPRPRPRPDGEPRP, for which the “shrunken log2 fold change” value was -0.115.

Turning to RRIRPRPPRLPRPRPRPKVKPRP, the “shrunken log2 fold change” value is -0.236.

Turning to RRIRGRPPRLPRPRPRPQADPRP, the “shrunken log2 fold change” value amounted to 0.43.

For RRIRWRPPRLPRPRPRPSRKPRP, the “shrunken log2 fold change” value amounted to 0.244.

As to RRIRFRPPRLPRPRPRPQFDPRP, the “shrunken log2 fold change” value is -0.286.

On to RRIRARPPRLPRPRPRPWFKPRP, for which the “shrunken log2 fold change” value is -0.0366.

RRIRLRPPRLPRPRPRPPPHPRP: the “shrunken log2 fold change” value was 1.13.

As to RRIRCRPPRLPRPRPRPRKQPRP, the “shrunken log2 fold change” value turned out to be 0.284.

For RRIRSRPPRLPRPRPRPSLQPRP, the “shrunken log2 fold change” value was -0.606.

With RRIRGRPPRLPRPRPRPMCCPRP, the “shrunken log2 fold change” value amounted to 0.164.

As for RRIRWRPPRLPRPRPRPEKEPRP, the “shrunken log2 fold change” value amounted to 0.0112.

In the case of RRIRRRPPRLPRPRPRPKTDPRP, the “shrunken log2 fold change” value was 0.163.

RRIRVRPPRLPRPRPRPCAWPRP: the “shrunken log2 fold change” value amounted to 0.27.

In the case of RRIRIRPPRLPRPRPRPVACPRP, the “shrunken log2 fold change” value was -0.154.

As for RRIRKRPPRLPRPRPRPKPDPRP, the “shrunken log2 fold change” value was 0.861.

For the sequence RRIRARPPRLPRPRPRPPPHPRP, the “shrunken log2 fold change” value came to 1.03.

For RRIRDRPPRLPRPRPRPKRPPRP, the “shrunken log2 fold change” value was determined as 0.449.

In the case of RRIRMRPPRLPRPRPRPRPHPRP, the “shrunken log2 fold change” value worked out at 1.05.

With RRIRNRPPRLPRPRPRPFIKPRP, the “shrunken log2 fold change” value was -0.473.

For the sequence RRIRARPPRLPRPRPRPYMWPRP, the “shrunken log2 fold change” value was -0.927.

In the case of RRIRIRPPRLPRPRPRPPHKPRP, the “shrunken log2 fold change” value is -0.0846.

Consider RRIRPRPPRLPRPRPRPQIHPRP, for which the “shrunken log2 fold change” value was -0.536.

In the case of RRIRVRPPRLPRPRPRPHRPPRP, the “shrunken log2 fold change” value is -0.243.

For RRIRWRPPRLPRPRPRPCNFPRP, the “shrunken log2 fold change” value is -0.464.

Regarding RRIRFRPPRLPRPRPRPVLPPRP, the “shrunken log2 fold change” value was -0.371.

As to RRIRARPPRLPRPRPRPCDTPRP, the “shrunken log2 fold change” value was 0.255.

For RRIRSRPPRLPRPRPRPKSVPRP, the “shrunken log2 fold change” value was -0.0236.

With RRIRSRPPRLPRPRPRPWHGPRP, the “shrunken log2 fold change” value was -0.00232.

As for RRIRARPPRLPRPRPRPTGWPRP, the “shrunken log2 fold change” value was 0.756.

In the case of RRIRRRPPRLPRPRPRPEVRPRP, the “shrunken log2 fold change” value was 0.176.

RRIRERPPRLPRPRPRPTIAPRP: the “shrunken log2 fold change” value is -0.25.

For RRIRHRPPRLPRPRPRPHIDPRP, the “shrunken log2 fold change” value is -0.241.

In the case of RRIRKRPPRLPRPRPRPKAYPRP, the “shrunken log2 fold change” value is 0.0431.

For RRIRSRPPRLPRPRPRPTKRPRP, the “shrunken log2 fold change” value is 0.294.

Take RRIRHRPPRLPRPRPRPYLMPRP: the “shrunken log2 fold change” value was -0.554.

Consider RRIRLRPPRLPRPRPRPPWIPRP, for which the “shrunken log2 fold change” value was -0.35.

As to RRIRRRPPRLPRPRPRPAQAPRP, the “shrunken log2 fold change” value amounted to 0.233.

RRIRIRPPRLPRPRPRPLRSPRP: the “shrunken log2 fold change” value was determined as 0.299.

Regarding RRIRSRPPRLPRPRPRPVINPRP, the “shrunken log2 fold change” value is -0.106.

In the case of RRIRLRPPRLPRPRPRPMALPRP, the “shrunken log2 fold change” value was -0.0125.

As to RRIRARPPRLPRPRPRPESWPRP, the “shrunken log2 fold change” value worked out at 1.49.

RRIRKRPPRLPRPRPRPRLDPRP: the “shrunken log2 fold change” value worked out at 0.624.

Regarding RRIRERPPRLPRPRPRPAYNPRP, the “shrunken log2 fold change” value was -0.449.

As for RRIRPRPPRLPRPRPRPKQSPRP, the “shrunken log2 fold change” value was 0.142.

Turning to RRIRQRPPRLPRPRPRPINHPRP, the “shrunken log2 fold change” value came to 0.147.

Consider RRIRCRPPRLPRPRPRPVTLPRP, for which the “shrunken log2 fold change” value is -0.34.

On to RRIRWRPPRLPRPRPRPMRKPRP, for which the “shrunken log2 fold change” value amounted to 1.4.

RRIRGRPPRLPRPRPRPRYNPRP: the “shrunken log2 fold change” value is -0.0667.

With RRIRYRPPRLPRPRPRPEPIPRP, the “shrunken log2 fold change” value was -0.103.

Take RRIRYRPPRLPRPRPRPAMAPRP: the “shrunken log2 fold change” value is 0.0187.

Turning to RRIRVRPPRLPRPRPRPHVIPRP, the “shrunken log2 fold change” value is -0.0921.

As to RRIRFRPPRLPRPRPRPRLLPRP, the “shrunken log2 fold change” value was determined as 0.342.

As for RRIRERPPRLPRPRPRPCACPRP, the “shrunken log2 fold change” value was -0.78.

Take RRIRNRPPRLPRPRPRPAYWPRP: the “shrunken log2 fold change” value stood at 0.0638.

Consider RRIRHRPPRLPRPRPRPDNCPRP, for which the “shrunken log2 fold change” value is -0.0245.

For the sequence RRIRMRPPRLPRPRPRPNNDPRP, the “shrunken log2 fold change” value is -0.0943.

With RRIRSRPPRLPRPRPRPHHCPRP, the “shrunken log2 fold change” value is -0.0623.

RRIRMRPPRLPRPRPRPACDPRP: the “shrunken log2 fold change” value is 0.974.

As for RRIRCRPPRLPRPRPRPMSRPRP, the “shrunken log2 fold change” value was 0.0291.

RRIRARPPRLPRPRPRPIDFPRP: the “shrunken log2 fold change” value turned out to be 0.125.

Consider RRIRGRPPRLPRPRPRPSWDPRP, for which the “shrunken log2 fold change” value is 0.496.

As for RRIRTRPPRLPRPRPRPLITPRP, the “shrunken log2 fold change” value was -0.489.

Consider RRIRVRPPRLPRPRPRPVWTPRP, for which the “shrunken log2 fold change” value worked out at 0.155.

In the case of RRIRNRPPRLPRPRPRPDLLPRP, the “shrunken log2 fold change” value is -0.0183.

On to RRIRIRPPRLPRPRPRPKNYPRP, for which the “shrunken log2 fold change” value is -0.417.

RRIRHRPPRLPRPRPRPKWSPRP: the “shrunken log2 fold change” value was 0.0617.

Take RRIRWRPPRLPRPRPRPNQTPRP: the “shrunken log2 fold change” value was determined as 0.0653.

For the sequence RRIRLRPPRLPRPRPRPVCHPRP, the “shrunken log2 fold change” value is -0.274.

On to RRIRHRPPRLPRPRPRPFQNPRP, for which the “shrunken log2 fold change” value was -0.195.

Take RRIRVRPPRLPRPRPRPVWMPRP: the “shrunken log2 fold change” value turned out to be 0.52.

With RRIRQRPPRLPRPRPRPSQCPRP, the “shrunken log2 fold change” value is -0.0618.

For the sequence RRIRERPPRLPRPRPRPNITPRP, the “shrunken log2 fold change” value is -0.738.

As to RRIRIRPPRLPRPRPRPMNFPRP, the “shrunken log2 fold change” value is -0.0453.

In the case of RRIRPRPPRLPRPRPRPPESPRP, the “shrunken log2 fold change” value was 0.841.

For RRIRKRPPRLPRPRPRPNDEPRP, the “shrunken log2 fold change” value amounted to 0.179.

As for RRIRVRPPRLPRPRPRPRRQPRP, the “shrunken log2 fold change” value turned out to be 0.0745.

As for RRIRRRPPRLPRPRPRPTLGPRP, the “shrunken log2 fold change” value was 0.138.

In the case of RRIRMRPPRLPRPRPRPYMWPRP, the “shrunken log2 fold change” value is -0.38.

Regarding RRIRHRPPRLPRPRPRPMPRPRP, the “shrunken log2 fold change” value came out at 0.069.

Regarding RRIRARPPRLPRPRPRPGKQPRP, the “shrunken log2 fold change” value is 0.292.

Regarding RRIRFRPPRLPRPRPRPFSPPRP, the “shrunken log2 fold change” value is -1.12.

For RRIRSRPPRLPRPRPRPPRFPRP, the “shrunken log2 fold change” value was 0.378.

For the sequence RRIRNRPPRLPRPRPRPNMLPRP, the “shrunken log2 fold change” value is -0.772.

On to RRIRMRPPRLPRPRPRPYMFPRP, for which the “shrunken log2 fold change” value was -0.493.

RRIRKRPPRLPRPRPRPMDGPRP: the “shrunken log2 fold change” value was 0.231.

With RRIRYRPPRLPRPRPRPWLIPRP, the “shrunken log2 fold change” value is -0.204.

Turning to RRIRNRPPRLPRPRPRPYLSPRP, the “shrunken log2 fold change” value was -0.169.

For the sequence RRIRHRPPRLPRPRPRPSCGPRP, the “shrunken log2 fold change” value was -0.304.

On to RRIRLRPPRLPRPRPRPMRCPRP, for which the “shrunken log2 fold change” value stood at 0.0565.

On to RRIRWRPPRLPRPRPRPEQCPRP, for which the “shrunken log2 fold change” value was -0.0195.

Regarding RRIRDRPPRLPRPRPRPQSNPRP, the “shrunken log2 fold change” value is -0.109.

With RRIRIRPPRLPRPRPRPYRRPRP, the “shrunken log2 fold change” value was -0.648.

For the sequence RRIRERPPRLPRPRPRPRLYPRP, the “shrunken log2 fold change” value was -0.448.

With RRIRTRPPRLPRPRPRPEIIPRP, the “shrunken log2 fold change” value came to 0.095.

For RRIRDRPPRLPRPRPRPRFMPRP, the “shrunken log2 fold change” value was -0.0192.

For the sequence RRIRFRPPRLPRPRPRPDADPRP, the “shrunken log2 fold change” value came to 0.386.

For the sequence RRIRPRPPRLPRPRPRPYNCPRP, the “shrunken log2 fold change” value was -1.4.

On to RRIRDRPPRLPRPRPRPELTPRP, for which the “shrunken log2 fold change” value worked out at 0.167.

Take RRIRARPPRLPRPRPRPVNAPRP: the “shrunken log2 fold change” value was -0.0521.

In the case of RRIRSRPPRLPRPRPRPVKPPRP, the “shrunken log2 fold change” value amounted to 0.132.

For the sequence RRIRYRPPRLPRPRPRPHEKPRP, the “shrunken log2 fold change” value was -0.00489.

On to RRIRPRPPRLPRPRPRPPVNPRP, for which the “shrunken log2 fold change” value was 0.15.

For RRIRNRPPRLPRPRPRPNIKPRP, the “shrunken log2 fold change” value is -0.641.

For RRIRMRPPRLPRPRPRPGFNPRP, the “shrunken log2 fold change” value was -0.106.

Consider RRIRMRPPRLPRPRPRPWSYPRP, for which the “shrunken log2 fold change” value is 0.206.

RRIRPRPPRLPRPRPRPITLPRP: the “shrunken log2 fold change” value came out at 0.0118.

As for RRIRPRPPRLPRPRPRPSRYPRP, the “shrunken log2 fold change” value is -0.163.

Consider RRIRSRPPRLPRPRPRPCVCPRP, for which the “shrunken log2 fold change” value came to 0.0568.

As for RRIRKRPPRLPRPRPRPGGSPRP, the “shrunken log2 fold change” value is 0.178.

On to RRIRLRPPRLPRPRPRPGHRPRP, for which the “shrunken log2 fold change” value was -0.114.

As for RRIRLRPPRLPRPRPRPVDMPRP, the “shrunken log2 fold change” value is -0.375.

As to RRIRIRPPRLPRPRPRPMAAPRP, the “shrunken log2 fold change” value is 0.403.

RRIRCRPPRLPRPRPRPFHWPRP: the “shrunken log2 fold change” value was -0.195.

On to RRIRERPPRLPRPRPRPLIQPRP, for which the “shrunken log2 fold change” value is -0.28.

As to RRIRDRPPRLPRPRPRPVPCPRP, the “shrunken log2 fold change” value was determined as 0.0758.
